T1: Npl4 (S. cerevisiae) (S. cerevisiae, UniProt P33755 1-580)
T1 construct: Npl4, S. cerevisiae, codon-optimized gene; source: E. coli BL21-CodonPlus (DE3)-RIL, purified with Ufd1 (Ni-NTA, TEV protease, SEC); not shown: His tag (from the Ni-NTA purification)
T1 sequence: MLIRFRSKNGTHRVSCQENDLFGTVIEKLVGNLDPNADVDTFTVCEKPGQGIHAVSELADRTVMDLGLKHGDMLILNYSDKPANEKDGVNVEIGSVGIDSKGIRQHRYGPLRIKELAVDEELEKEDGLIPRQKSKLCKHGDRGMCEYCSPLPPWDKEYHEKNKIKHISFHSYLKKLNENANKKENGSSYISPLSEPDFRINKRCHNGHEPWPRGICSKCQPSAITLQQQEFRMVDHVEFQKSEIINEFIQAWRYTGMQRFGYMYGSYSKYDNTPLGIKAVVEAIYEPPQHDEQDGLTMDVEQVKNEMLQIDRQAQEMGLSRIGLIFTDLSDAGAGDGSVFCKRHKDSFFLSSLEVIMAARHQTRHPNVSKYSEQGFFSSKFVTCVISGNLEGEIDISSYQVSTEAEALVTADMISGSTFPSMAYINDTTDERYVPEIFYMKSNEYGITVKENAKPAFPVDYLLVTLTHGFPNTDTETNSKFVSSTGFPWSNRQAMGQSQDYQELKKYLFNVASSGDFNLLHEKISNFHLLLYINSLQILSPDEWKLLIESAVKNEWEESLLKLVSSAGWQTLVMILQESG

B1: Ufd1 (S. cerevisiae) (natural protein)
chain: MFSGFSSFGGGNGFVNMPQTFEEFFRCYPIAMMNDRIRKDDANFGGKIFLPPSALSKLSMLNIRYPMLFKLTANETGRVTHGGVLEFIAEEGRVYLPQWMMETLGIQPGSLLQISSTDVPLGQFVKLEPQSVDFLDISDPKAVLENVLRNFSTLTVDDVIEISYNGKTFKIKILEVKPESSSKSICVIETDLVTDFAPPVGYVEPDYKALKAQQDKEKKNSFGKGQVLDPSVLGQGSMSTRIDYAGIANSSRNKLSKFVGQGQNISGKAPKAEPKQDIKDMKITFDGEPAKLDLPEGQLFFGFPMVLPKEDEESAAGSKSSEQNFQGQGISLRKSNKRKTKSDHDSSKSKAPKSPEVIEID
notes: Ufd1, S. cerevisiae, codon-optimized gene; residues 228 to 256 and 281 to 311 resolved in the maps; source: E. coli BL21-CodonPlus (DE3)-RIL, purified with Npl4 (Ni-NTA, TEV protease, SEC); not shown: His tag (from the Ni-NTA purification)

Key:
[1] = target: Ufd1^ΔSIM/Npl4 dimer, biotinylated (S. cerevisiae) (UniProt P53044); assay: BLI; biotinylated Ufd1/Npl4 dimer (WT Ufd1 or Ufd1^ΔSIM) immobilised on streptavidin biosensors, serial dilution of substrate; 30 °C; PBS, 0.02% Tween-20, 0.1% BSA, 0.1 mM TCEP; 2:1 heterogeneous ligand fit
[2] = target: T1, Npl4 (S. cerevisiae); assay: cryo-EM structure; 2 μM Ufd1/Npl4, 2 μM Cdc48, 2.5 μM 1S1U^H-mEOS, on ice with 1 mM ATP in 20 mM HEPES pH 8.0, 150 mM NaCl, 0.1 mM TCEP, 5 mM MgCl2; single-particle; conditions: both partners purified

Molecule | fold binding defect against WT Ufd1/Npl4 [1] [fold] | binding result [2]
1S1U-mEOS substrate without polyubiquitin chain (one SUMO and one ubiquitin fused end to end with the N-terminus of mEOS) (from UniProt Q12306 1-101; P0CG63 1-76) | 100 | –
B1 | – | binds
